Experiments:
A3A-E72A [1] = biological target: T1, A3A-E72A (human, UniProt P31941 1-199, E72A); assay: X-ray crystallography; Zn2+; 3.15 A; one copy threaded with GACC loop; ITC: 50 mM Na+/K+ phosphate pH 6.0, 50 mM NaCl, 50 mM choline acetate, 2.5 mM TCEP, 200 uM EDTA, 30 mg/mL BSA, 25 C; NMR inhibition: 50 mM Na+/K+ phosphate pH 7.4, 100 mM NaCl, 1 mM TCEP, 100 uM DSS, 10% D2O, 20 C, 140 nM A3A; conditions: protein: recombinant; hairpin, 4 bp stem incl. one AT pair, 4-nt loop CTTC
A3A-E72A [2] = biological target: T1, A3A-E72A; assay: X-ray crystallography; 1.91 A; Cl-; ITC: 50 mM Na+/K+ phosphate pH 6.0, 50 mM NaCl, 50 mM choline acetate, 2.5 mM TCEP, 200 uM EDTA, 30 mg/mL BSA, 25 C; NMR inhibition: 50 mM Na+/K+ phosphate pH 7.4, 100 mM NaCl, 1 mM TCEP, 100 uM DSS, 10% D2O, 20 C, 140 nM A3A; conditions: protein: recombinant; hairpin, potential 6 bp stem, 4-nt loop ATTC

T1 sequence (P31941 whole entry E72A): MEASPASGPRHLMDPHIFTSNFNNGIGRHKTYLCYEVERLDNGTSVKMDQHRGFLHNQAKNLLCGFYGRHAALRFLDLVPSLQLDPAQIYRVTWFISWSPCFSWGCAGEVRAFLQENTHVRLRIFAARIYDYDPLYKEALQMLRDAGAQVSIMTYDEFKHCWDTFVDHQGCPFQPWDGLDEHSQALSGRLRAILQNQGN

| Binder | binding result (A3A-E72A [1]) | binding result (A3A-E72A [2]) |
| --- | --- | --- |
| GCCACCTTCGTGGG (structured_DNA) [CTTC-hairpin] | binds |  |
| CCCATCATTCGATGGG (structured_DNA) [ATTC-hairpin] |  | binds |

— publication PMC10567711, “Structure-guided inhibition of the cancer DNA-mutating enzyme APOBEC3A”
